Experimental data as given in patent US20210347908A1 (ELPISCIENCE SUZHOU BIOPHARMA, published 2021).

What was measured:
[1] = target: T1, 6×His tagged human SIRPα v2 ECD recombinant protein (human); experiment: SPR (Biacore)
Method: (§1) Anti-SIRPα chimeric antibodies were characterized for binding affinity against human SIRPα v1, human SIRPα v2 and C57BL/6 mouse SIRPα using Biacore (GE). Briefly the antibodies to be tested were captured to CM5 chip (GE) using Human Antibody Capture Kit (GE). The antigens of 6×His tagged human SIRPα v1, human SIRPα v2 and C57BL/6 mouse SIRPα ECD recombinant proteins were serially diluted for multiple doses and injected at 30 μl/min for 180 s. Buffer flow was maintained for dissociation of 400 s. 3 M MgCl₂ was used for chip regeneration. The association and dissociation curves were fit with 1:1 binding model, and the Ka/Kd/KD values for each antibody were calculated.
(§2) hu035.01, the first version of humanized 035, was characterized by FACS assay using CHOK1-human SIRPα v1-1B4 cells, ELISA assay using Fc tagged human SIRPα v2 ECD recombinant protein and SPR analysis using the antigen of 6×His tagged human SIRPα v2 ECD recombinant protein (refer to methods described in Example 3.4, Example 3.3 and Example 4.3). […] In particular, hu035.01 cannot be detected to bind with C57BL/6 mouse SIRPα ECD in ELISA assay possibly due to reduced binding activity (FIG. 5B).

[2] = target: T2, full length human SIRPα v1 stably expressed on CHOK1 cells (human, UniProt P78324 31-504); experiment: FACS on CHOK1-human SIRPα v1-1B4 cells
T2 construct: whole, on cells; also called CHOK1-human SIRPα v1-1B4 cells; CHOK1-human SIRPα v1
Method: Species cross reactivity of the purified hybridoma antibodies against human, cyno and mouse SIRPα was determined by FACS assay using CHOK1-human SIRPα v1-1B4 cells, CHOK1-cyno SIRPα-2A2 cells, and CHOK1-C57BL/6 mouse SIRPα-2.22 cells, which stably expressing SIRPα protein. Briefly the antibodies were incubated with 2×10⁵ target cells at 4° C. for 1 hour. After washing, fluorescence labeled anti-mouse or anti-human IgG 2nd antibody (Life Technologies) was added and incubated at 4° C. for 1 hour. Geometric median fluorescence intensity was detected and EC₅₀ was calculated. In particular, it is noted, in contrast to the other antibodies tested in the same experiment, 060 cannot bind with cyno SIRPα and 035 has cross reactivity against C57BL/6 mouse SIRPα.
as §2

[3] = target: T1, 6×His tagged human SIRPα v2 ECD …; experiment: SPR (Biacore), antibody captured, 6×His tagged human SIRPα v2 ECD as analyte
Method: as §1, §2

[4] = target: T3, 6×His tagged C57BL/6 mouse SIRPα ECD recombinant protein (mouse (C57BL/6), UniProt P97797 32-373); experiment: ELISA on coated mouse SIRPα (C57BL/6) ECD, antibody at 10, 1 and 0.1 ug/ml [right panel mSIRPα ECD (C57BL/6]
T3 construct: extracellular domain; bought; also called mSIRPα (C57BL/6); mouse SIRPα (C57BL/6) ECD
T3 sequence: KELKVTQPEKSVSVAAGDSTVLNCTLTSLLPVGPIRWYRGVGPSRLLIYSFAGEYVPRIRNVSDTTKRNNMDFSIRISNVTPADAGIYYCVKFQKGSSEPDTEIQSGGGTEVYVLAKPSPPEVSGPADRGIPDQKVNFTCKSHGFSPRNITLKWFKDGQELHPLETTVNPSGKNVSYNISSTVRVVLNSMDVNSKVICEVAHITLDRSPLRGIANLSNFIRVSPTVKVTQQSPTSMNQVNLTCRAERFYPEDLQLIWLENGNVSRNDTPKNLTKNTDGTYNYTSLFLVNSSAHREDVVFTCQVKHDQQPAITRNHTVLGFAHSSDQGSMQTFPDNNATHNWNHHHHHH

T1 sequence (chain, as listed by the source): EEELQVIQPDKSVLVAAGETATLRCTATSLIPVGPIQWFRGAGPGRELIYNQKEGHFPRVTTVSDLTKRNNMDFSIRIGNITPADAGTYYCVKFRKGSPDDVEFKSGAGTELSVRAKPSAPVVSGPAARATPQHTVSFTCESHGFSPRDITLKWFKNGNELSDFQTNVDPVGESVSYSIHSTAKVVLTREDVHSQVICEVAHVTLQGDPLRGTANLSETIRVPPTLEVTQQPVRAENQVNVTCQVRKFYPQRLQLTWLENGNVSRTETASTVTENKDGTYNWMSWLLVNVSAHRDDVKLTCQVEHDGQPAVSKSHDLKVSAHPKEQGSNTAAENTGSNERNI

B1: humanized antibody hu035.01 (antibody, V domains shown)
VH: QIQLVQSGSELKKPGASVKVSCKASGYTFTNYAMNWVRQAPGQGLEWMGWINTYTGEPTYAQGFKGRFVFSLDTSVSTAYLQISSLKAEDTAVYYCARTRGYYDFDGGAFDYWGQGTLVTVSS
VL: DIQMTQSPSSLSASVGDRVTITCRASQNVGTHLAWFQQKPGKAPKSLIYSASYRYIGVPSRFSGSGSGTDFTLTISSLQPEDFATYYCQQYNTYPLTFGQGTKLEIK
notes: first humanized version of 035 (CDR graft on VH7-4-1 / VK1-16)
Kd [1]: 0.0534 µM | EC50 (read off the curve) [2]: ~0.5 mg/L | koff [3]: 0.00065 s⁻¹ | kon [3]: 12200 M⁻¹ s⁻¹ | binding result [4]: no binding (tested: 10 ug/ml)
